Measurements published in the supplement of paper PMC10724198.
± gives the standard deviation of the averaged measurements.

system: Saccharomyces cerevisiae; experiment: protein stability index of tFT-peptide fusion (C-terminal peptide) (PSI (0-1 scale)); higher = more stable (slower turnover); settings: genetic background: wild type; temperature: 30 C
Method: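 Multiplexed protein stability (MPS) profiling in S. cerevisiae. Random 12-aa peptides (tFT-X12 library) are fused to the C-terminus of a sfGFP-mCherry tandem fluorescent timer, after mCherry and a GGGS linker. Cells are FACS-sorted into 8 mCherry/sfGFP bins and deep-sequenced. The protein stability index (PSI) is the read-weighted bin average, scaled from 0 (unstable) to 1 (stable). Only peptides with >10 reads are reported; cells were grown at 30 °C in SC-His with glucose.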
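Note: PSI is a weighted mean of sequencing reads over stability bins, variants kept only with over 10 reads, mCherry proximal and sfGFP distal, peptide attached via GGGS linker.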

Sequence | protein stability index
KTKGPKSKPKRK | 0.6563 ± 0.0046
KTKKNKITFKNK | 0.759 ± 0.02
KTNIKKQSKISK | 0.778 ± 0.18
KTQKNQKLTRSK | 0.769 ± 0.12
KTRKKEKKPSRK | 0.6233 ± 0.0036
KVDGTIDSRVMS | 0.683 ± 0.089
KVRAGLGIRITQ | 0.674 ± 0.021
KVRSFGGLFVKG | 0.68 ± 0.022
KVSCGGAGDSLG | 0.693 ± 0.022
KVSIINAWKEKI | 0.679 ± 0.044
KVVVWRAKTSHS | 0.692 ± 0.068
KWLAQLEHEKYN | 0.696 ± 0.025
KWMKKIKTRRQI | 0.609 ± 0.018
KYHIKKPSTLEI | 0.683 ± 0.01
KYKKNNNKKQNQ | 0.704 ± 0.097
KYYRKKNIEKEN | 0.575 ± 0.017
LACCGGLVTWVL | 0.6891 ± 0.0046
LACTSPLLLRFR | 0.673 ± 0.023
LADFMFCALPLC | 0.658 ± 0.045
LADRTREFSNPA | 0.6466 ± 0.0054
LAFFPRGTPPHS | 0.67 ± 0.029
LAGGGWGGACGE | 0.655 ± 0.017
LAGLLMSPNMSP | 0.697 ± 0.025
LAGVEMWVGLEV | 0.61 ± 0.059
LALKYLGQLIGA | 0.594 ± 0.024

Sequence | protein stability index
LALPSWVRYASR | 0.694 ± 0.016
LALRMLWSIVRT | 0.599 ± 0.079
LAMALRGGLYFS | 0.701 ± 0.011
LAPALPPQPPSH | 0.658 ± 0.023
LAPPLPMPPPLA | 0.682 ± 0.02
LAPPPAAPLSHS | 0.697 ± 0.018
LAPPPPARPALP | 0.699 ± 0.0076
LAPPTTAGPRPP | 0.599 ± 0.01
LARASLVLPPSG | 0.648 ± 0.093
LASPDPSPLVVP | 0.678 ± 0.02
LASSVRSSASVP | 0.739 ± 0.034
LAYITTTPALAS | 0.581 ± 0.048
LCAPPPSLSPFV | 0.708 ± 0.025
LCCPVFFAFCFP | 0.683 ± 0.094
LCFRSLFLCSLF | 0.577 ± 0.13
LCFVFDLASLCW | 0.539 ± 0.04
LCGPKIGFVVSR | 0.704 ± 0.04
LCGVWWGWWVGL | 0.576 ± 0.026
LCLDNFSSSWPI | 0.719 ± 0.02
LCPSLLFSSSDP | 0.699 ± 0.024
LCPVGLGFFVGL | 0.666 ± 0.056
LCRYFLRGVINT | 0.64998 ± 0.00026
LCTCRLSDVRIG | 0.6748 ± 0.0033
LDLLIVNFFNLV | 0.69 ± 0.13
LDLLRCIQHCVV | 0.637 ± 0.027

Sequence | protein stability index
LDPPHTLPRSAP | 0.70982 ± 0.0002
LDSSPPCSSNCD | 0.736 ± 0.058
LDVFSLASRPDG | 0.5928 ± 0.0053
LDVSGEVRVGRG | 0.629 ± 0.013
LELADGRCARSG | 0.8 ± 0.065
LELTSDWRAYVY | 0.643 ± 0.052
LESSLPIDSERC | 0.675 ± 0.055
LEVAGVLCSRVC | 0.56 ± 0.016
LEWGRGFGLWGG | 0.7823 ± 0.004
LEYRSCDFIDRS | 0.625 ± 0.057
LFAGTFTEYPLS | 0.641 ± 0.078
LFFLRSSSRGLW | 0.736 ± 0.055
LFHRAVVGRVRP | 0.634 ± 0.013
LFICETRLDSRY | 0.744 ± 0.13
LFLYLGSGARAV | 0.721 ± 0.019
LFPCPSMTLPRL | 0.706 ± 0.017
LFPFIPPRLPLP | 0.687 ± 0.01
LFPHSLLPPPFF | 0.73 ± 0.042
LFPRCPPPPLTT | 0.653 ± 0.053
LFPSSHFSLSLH | 0.767 ± 0.033
LFPSVCSTSSFS | 0.676 ± 0.034
LFQFFSPCRIPE | 0.749 ± 0.011
LFRPSFFFFVCQ | 0.548 ± 0.0027
LFRRPLLRPPPF | 0.745 ± 0.024
LFSHGFLYILGG | 0.696 ± 0.017

Sequence | protein stability index
LFSHLLFPWLSR | 0.7545 ± 0.0048
LFSLPPRASFSL | 0.773 ± 0.043
LFTSLYWAFRSR | 0.679 ± 0.016
LGAAFHSLTRLV | 0.617 ± 0.066
LGAMTQEADGTG | 0.639 ± 0.078
LGARELTFALLR | 0.649 ± 0.0039
LGCSMSPYFVRF | 0.802 ± 0.074
LGFCRLVFGVVG | 0.522 ± 0.01
LGFISGCGVFGT | 0.708 ± 0.026
LGFPLPRTPSIT | 0.792 ± 0.06
LGGGGGGGVAGD | 0.723 ± 0.069
LGGGVVCGVWGG | 0.704 ± 0.03
LGGWLWSPGVVV | 0.6355 ± 0.0056
LGILSERIGRAL | 0.7713 ± 0.0036
LGKSGLTILCRD | 0.5954 ± 0.003
LGLFGSVVVCGQ | 0.65 ± 0.015
LGLGSFPLMDLS | 0.738 ± 0.015
LGLQHPSAWLFP | 0.678 ± 0.045
LGNANKRPREIK | 0.718 ± 0.032
LGPFSVPCDPHF | 0.696 ± 0.04
LGPGGVAWGAWW | 0.7623 ± 0.0022
LGPPLLDLASLR | 0.719 ± 0.035
LGPRMYKRRDLR | 0.724 ± 0.023
LGRGGAASGRAL | 0.67 ± 0.062
LGSSGVVGYHLD | 0.71 ± 0.054

Sequence | protein stability index
LGVGGRWVGPGA | 0.722 ± 0.027
LGVNYWIYSPHG | 0.689 ± 0.01
LGVPKDALKMMS | 0.685 ± 0.0078
LGVPPVLLLASS | 0.506 ± 0.0077
LGWLCWQFFGGT | 0.795 ± 0.14
LGWVGGGGGWGC | 0.704 ± 0.03
LGYGERAGVGKR | 0.6954 ± 0.0049
LHCRFDCTPFPY | 0.67 ± 0.012
LHGRTLENIVVR | 0.6481 ± 0.0044
LHHGMVDDCIKK | 0.70112 ± 0.00044
LHPCATITELTS | 0.652 ± 0.026
LHPPPLPQAPPT | 0.684 ± 0.09
LHRCRPPCSIHL | 0.816 ± 0.036
LHRGCSGNVPAR | 0.697 ± 0.037
LHSPPLPFTPSP | 0.613 ± 0.041
LIAACSFPRSSI | 0.716 ± 0.067
LIFDISDLVWYI | 0.636 ± 0.031
LIGMCEAGCSPF | 0.727 ± 0.012
LILHVGWDSQLG | 0.667 ± 0.085
LISSPKIHLRTY | 0.742 ± 0.14
LISSVRLACGVS | 0.554 ± 0.061
LIVPGGLSVFGG | 0.676 ± 0.082
LKKEKDHKNRNR | 0.67 ± 0.016
LKNFGRGAMVRT | 0.688 ± 0.013
LKSSREKRDMIG | 0.578 ± 0.019

Sequence | protein stability index
LLAEPASSRFRP | 0.722 ± 0.029
LLAFRVSRYFCD | 0.87 ± 0.06
LLALHPLRSWPP | 0.665 ± 0.016
LLALSPLSSYAL | 0.711 ± 0.084
LLALVLTYLLYG | 0.564 ± 0.03
LLDGGGGGVGEG | 0.765 ± 0.011
LLDGRNVPRFRK | 0.792 ± 0.042
LLFFFTWCLCCF | 0.569 ± 0.028
LLFRSLASMEFP | 0.6934 ± 0.0062
LLGWRFFYLGVG | 0.688 ± 0.051
LLHHPPPPPSQP | 0.769 ± 0.011
LLHPLPPPSYPP | 0.689 ± 0.01
LLHRALLFPAVM | 0.734 ± 0.017
LLIFFFSSSCPL | 0.5359 ± 0.0025
LLIYALPQGTHL | 0.68 ± 0.048
LLKLSVPPSLYV | 0.5722 ± 0.0011
LLLARDLAHPLI | 0.705 ± 0.015
LLLFSILPFCLF | 0.53 ± 0.073
LLLLPPPPPPPT | 0.684 ± 0.046
LLLTVMSSPSLL | 0.645 ± 0.027
LLNCVCSYFAWC | 0.637 ± 0.014
LLNNTLENQNTL | 0.6645 ± 0.0041
LLNTSPPRSVLH | 0.653 ± 0.01
LLPFHPPPPCPP | 0.733 ± 0.033
LLPFIPPPPCPP | 0.658 ± 0.02

Sequence | protein stability index
LLPLGSLSLSPP | 0.7257 ± 0.0024
LLPLPSFSPCSL | 0.7013 ± 0.0034
LLPLVLHQAFSP | 0.729 ± 0.073
LLPPPPPASPAI | 0.696 ± 0.01
LLPPSPSSRPLF | 0.723 ± 0.02
LLPPTSRLPRLG | 0.702 ± 0.12
LLPSPLPPLLRL | 0.6494 ± 0.0018
LLQFYWRPCRGY | 0.699 ± 0.013
LLQSPRLGQEWA | 0.6928 ± 0.0028
LLSCFGFLRVGA | 0.6076 ± 0.0049
LLSHLPLPSSPP | 0.737 ± 0.096
LLSPAPRSPRRP | 0.725 ± 0.019
LLSPPFPPPAMV | 0.6948 ± 0.0017
LLSPPPAPRPPH | 0.696 ± 0.067
LLSSSLPVCLWS | 0.733 ± 0.048
LLSVPSLFCQFF | 0.683 ± 0.057
LLTAFQACPASN | 0.713 ± 0.04
LLVCVVDREPPI | 0.685 ± 0.019
LMGFVASGGDDM | 0.786 ± 0.1
LNDYGLADLGII | 0.731 ± 0.0076
LNEGSDRTKNKK | 0.709 ± 0.065
LNHTRKDSLLTC | 0.667 ± 0.014
LNPPPPPDPPPT | 0.585 ± 0.048
LNSSGPGYGFPG | 0.743 ± 0.05
LNWMVMLGHGAC | 0.5729 ± 0.0014

Sequence | protein stability index
LPAFHFHSPPTP | 0.688 ± 0.037
LPAPARPPLVCS | 0.605 ± 0.048
LPAPPTPRPAPP | 0.706 ± 0.016
LPFPSCYLRASL | 0.779 ± 0.033
LPFSPLSLLAHP | 0.782 ± 0.044
LPGCPPADRPLV | 0.688 ± 0.13
LPHLSPPPLAQL | 0.686 ± 0.033
LPHSPHRAAYPN | 0.8 ± 0.013
LPHYLAFPFFMI | 0.499 ± 0.08
LPIARLPPPPPR | 0.707 ± 0.1
LPITTPLPPLDP | 0.688 ± 0.02
LPLALLSPPFGS | 0.707 ± 0.022
LPLHAPPPHRHP | 0.683 ± 0.013
LPLPHPQPTPYP | 0.756 ± 0.046
LPLPPLPPPSCP | 0.718 ± 0.032
LPLSRPPLPPPL | 0.786 ± 0.031
LPNLGWTNSSIE | 0.667 ± 0.066
LPNPTSPSPQAA | 0.693 ± 0.025
LPPALAPLPPPL | 0.572 ± 0.021
LPPCGQIVSLDT | 0.68 ± 0.022
LPPLAPSSPPRP | 0.696 ± 0.033
